Assay results as given in US12527862B2, “Bactericidal/permeability increasing protein for use in a method of immunization, preferably as an adjuvant in a method of vaccination” (UNIVERSITÄT REGENSBURG, priority 2018, dated 2026).

Key:
[1] = tested on: bone-marrow derived dendritic cells; assay: Microarray gene expression analysis in BMDCs; format: cell-based, C57BL/6J mice; conditions: 4 h
Description: All methods mentioned in this example were carried out as described in Example 1. BMDCs were seeded into a tissue-culture-treated 96-well plate in VLE-RPMI 1640 media (10% FCS, 10% Penicillin-Streptomycin, 50 μM β-Mercaptoethanol) and stimulated with 200 nM huBPI or muBPI. 4 h after stimulation, gene expression analysis was performed by microarray analysis (Affymetrix Mouse Gene 2.0 ST, FIGS. 2A and 2B).

[2] = tested on: BMDCs; assay: Quantitative real-time PCR gene expression in BMDCs; format: cell-based, C57BL/6J mice; conditions: BMDCs stimulated with BPI; rtPCR normalized to HPRT, also microarray (FIGS. 2B and C)
Description: Gene expression analyses using rtPCR were performed 30 min, 1 h, 2 h, 4 h, 8 h, 12 h, 24 h and 48 h after the stimulation.
After stimulation, cells were lysed and RNA was isolated using RNeasyR Mini Kit (#74106, Qiagen). Remaining DNA in the sample was digested using TURBO DNA-free™ Kit (#AM1907, ThermoFisher Scientific). Finally, the RNA concentration was measured with a NanoDrop 1000 (Thermo Scientific). The isolated RNA was transcribed into complementary DNA (cDNA) using the iScript™ª Advanced cDNA Synthesis Kit (#1725038, Bio-Rad).
To analyze altered gene transcription, in particular of genes CXCL10, HPRT, IL-2, IL-6, and IL-12p40, in response to different stimulatory reagents, quantitative real-time PCR (qRT-PCR) was performed using SYBR-Green Master Mix (LightCycler® 480 SYBR Green I Master, #4707516001, Roche). Gene-specific primers synthesized by Thermo Fisher Scientific, Microsynth, Biomers, and Metabion were used. PCR reaction was performed using the HT 7900 Real-Time PCR system (Applied Biosystems). SDS software version 2.4 (Applied Biosystems) was used to analyze the gene expression, which was normalized to the housekeeping gene HPRT. 2^-ΔΔCT method was used to analyze the data.

[3] = tested on: BMDCs; assay: Cytokine protein secretion by BMDCs (Luminex); format: cell-based, C57BL/6J mice
Description: All methods mentioned in this example were carried out as described in the preceding examples. Cells were stimulated with Zymosan depleted (Zymd, 5 μg/ml) from Invivogen (San Diego, CA, USA) or (R)-Pam3CSK4 (bLP, 10 nM) from EMC Microcollections GmbH (Tübingen, Germany). Protein secretion analysis was performed using the supernatants.
To quantify the interleukin and chemokine protein-level after stimulation with huBPI, Zymd, and (R)-Pam CSK4, a multiplex-system was used and determined by using the Luminex® technology (Austin, TX, USA). The cytokines were captured with anti-mouse capture-antibodies and detected by biotinylated antibodies specific for the respective protein (Table 3). Protein concentrations were calculated using a reconstituted standard curve of the analyzed proteins (SM039, #LMC4031, Lot #1438354; Thermo Fisher Scientific; Standard Mix 1a, #EPX010-20603-901, Lot #111709101, eBioscience).

[4] = tested on: human peripheral blood mononuclear cells; assay: Stimulation of human peripheral blood mononuclear cells, TNFα ELISA; format: cell-based; conditions: BPI 500 nM, 18 h
Description: After informed consent, blood was drawn from healthy male volunteers using heparinized blood collection tubes and PBMCs were separated using leucosep tubes containing FICOLL® PAQUE PLUS (Oxford Immunotec, Abingdon, Great Britian) at 1,000×g for 10 min. The pellet was resuspended in AIM VR Medium (Thermo Fisher Scientific Inc., Waltham, MA, USA), counted, and cultivated in 96-well plates for 4 h (1×10^5/100 μl). Then cells were stimulated with (R)-Pam3CSK4 (bLP, 1 nM) or LTA S. pneumoniae Δlgt (a lipoprotein deficient strain, LTA SPΔlgt, 1 μM, n=4) in the presence or absence of BPI (500 nM). The supernatants were collected after 18 h for determination of cytokine concentration by ELISA according to the manufacturer's instructions (OPTEIA™ Human TNFα ELISA Set, BD Biosciences, Heidelberg, Germany).

B1: bactericidal/permeability-increasing protein (protein)
chain: RIKIPDYSDSFKIKHLGKGHYSFYSMDIREFQLPSSQISMVPNVGLKFSISNANIKISGKWKAQKRFLKMSGNFDLSIEGMSISADLKLGSNPTSGKPTITCSSCSSHINSVHVHISKSKVGWLIQLFHKKIESALRNKMNSQVCEKVTNSVSSELQPYFQTLPVMTKIDSVAGINYGLVAPPATTAETLDVQMKGEFYSENHHNPPPFAPPVMEFPAAHDRMVYLGLSDYFFNTAGLVYQEAGVLKMTLRDDMIPKESKFRLTTKFFGTFLPEVAKKFPNMKIQIHVSASTPPHLSVQPTGLTFYPAVDVQAFAVLPNSSLASLFLIGMHTTGSMEVSAESNRLVGELKLDRLLLELKHSNIGPFPVELLQDIMNYIVPILVLPRVNEKLQKGFPLPTPARVQLYNVVLQPHQNFLLFGADVVYK
modifications: labeled with NT647 (Monolith NT Protein Labeling Kit RED-NHS) in the MST experiments
notes: recombinant human BPI, aa32-487 of huBPI with N-terminal HA signal peptide, expressed in HEK293T cells
immunostimulatory effect on BMDCs (gene expression) ([1]; 200 nM huBPI or muBPI, microarray (FIG. 2A)): shows an immunostimulatory effect on BMDCs | induced genes important for activation and priming of T cells ([1]; 200 nM, microarray (FIG. 2B)): IL-2 is the highest induced cytokine | CXCL10, IL-2, IL-6, and IL-12p40 mRNA expression [2]: increase of CXCL10, IL-2, IL-6, and IL-12p40 mRNA expression | IL-4 level ([3]; BMDCs (FIG. 12)): not induced | IL-2, IL-12p40/p70, and IL-6 protein secretion ([3]; Luminex, n>7, 4h (FIG. 3)): increase of IL-2, IL-12p40/p70, and IL-6 protein secretion | stimulatory effect on the expression of IL-6 (IL-6 level), BPI vs Zymd vs bLP ([3]; Zymd 5 μg/ml, bLP 10 nM, Luminex, n>7, 4h (FIG. 3)): comparable | increase of IL-2 and IL12p40/p70 compared to Zymd and bLP ([3]; vs Zymd 5 μg/ml and bLP 10 nM, Luminex, n>7, 4h (FIG. 3)): significantly higher | effect of BPI alone on PBMCs [4]: minor effect
